Measurements from US20240059799A1 (Pfizer, published 2024).

T1: recombinant human TL1A (human, UniProt O95150 71-251)
T1 construct: Homotrimeric cytokine; biotinylated with Sulfo-NHS-biotin where captured for SPR, coated unlabelled in ELISA, soluble in bioassays; also called TNFSF15
T1 chain: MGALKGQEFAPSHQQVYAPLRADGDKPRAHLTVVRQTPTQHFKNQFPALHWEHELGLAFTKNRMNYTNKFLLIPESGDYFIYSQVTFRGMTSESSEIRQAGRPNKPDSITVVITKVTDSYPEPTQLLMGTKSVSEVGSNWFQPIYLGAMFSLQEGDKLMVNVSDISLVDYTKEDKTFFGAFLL


Tests used:
[1] = target: T1, recombinant human TL1A; experiment: competition ELISA, coated TL1A, competitor bio-TL1A-0002
Procedure: For this competition ELISA assay procedure, 96-well high binding plates (Corning, product number 3590) were coated with 1 μg/mL recombinant TL1A in 100 μL/well in Phospate Buffered Saline (PBS) overnight at 4° C. Plates were then blocked in PBS+0.02% casein solution and washed with PBS+0.05% Tween-20 following standard ELISA protocol. […] Plates were washed with PBS+0.05% Tween-20 following standard ELISA protocol, and Streptavidin-HRP (Southern Biotech, product number 7100-05) diluted to 1:10,000 in assay buffer was added to plates and incubated for 25-30 minutes at room temperature. Next, the plates were washed with PBS+0.05% Tween-20 following standard ELISA protocol, and then TMB substrate (BioFX Laboratories, catalog number TMBW-0100-01) was added to plates. Reactions were stopped after approximately 5 minutes by adding 0.18 M ortho-phosphoric acid to each well and absorbance was read at 450 nm.

[2] = target: T1, recombinant human TL1A; experiment: cell-based or functional assay

Row | Binder | Bioactivity relative to TL1A-0002 [1] [fold] | IC50 [1] [nM] | TF-1 NF-κB reporter cell bioassay IC50 [2] [nM] | TF-1 NF-κB reporter cell bioassay, Bioactivity relative to TL1A-0002 [2] [fold] | Whole blood IFNγ assay IC50 [2] [nM] | Whole blood IFNγ assay, Bioactivity relative to TL1A-0002 [2] [fold]
1 | TL1A-0261 (antibody, human IgG1, kappa, V domains shown, human IgG1 effector-function-minimized/kappa) VH: QVQLVQSGAEVKKPGASVKVSCKASGYDYTYYGISWVRQAPGQGLEWMGWISTYNTGTHYAPSLQGRVTMTTDTSTSTAYMELRSLRSDDTAVYYCARESYYGSGAHRGGMDVWGQGTTVTVSS VL: DIQMTQSPSSLSASVGDRVTITCRASQSVSSYLAWYQQKPGKAPKLLIYDASNRATGVPSRFSGSGSGTDFTLTISSLQPEDFATYYCQQRSNWPWTFGQGTKVEIKR | 1.1 | 5.6 | 29.5 | 0.8 | 0.923 | 1.1
2 | TL1A-0263 (antibody, human IgG1, kappa, V domains shown, human IgG1 effector-function-minimized/kappa) VH: QVQLVQSGAEVKKPGASVKVSCKASGYDYTYYGISWVRQAPGQGLEWMGWISTYNTGTHYAQKLQGRVTMTTDTSTSTAYMELRSLRSDDTAVYYCARESYYGSGAHRGGMDVWGQGTTVTVSS VL: DIQMTQSPSSLSASVGDRVTITCRASQSVSSYLAWYQQKPGKAPKLLIYDASNRATGVPSRFSGSGSGTDFTLTISSLQPEDFATYYCQQRSNWPWTFGQGTKVEIKR | 1.2 | 6.2 | 40.4 | 1.2 | 0.932 | 1.1
3 | TL1A-0280 (antibody, human IgG1, kappa, V domains shown, human IgG1 effector-function-minimized/kappa) VH: QVQLVQSGAEVKKPGASVKVSCKASGYDFSYYGISWVRQAPGQGLEWMGWISTYNTNTHYAPSLQGRVTMTTDTSTSTAYMELRSLRSDDTAVYYCARESYYGSGAFRGGMDVWGQGTTVTVSS VL: DIQMTQSPSSLSASVGDRVTITCRASQSVSSYLAWYQQKPGKAPKLLIYDASNRATGVPSRFSGSGSGTDFTLTISSLQPEDFATYYCQQRSNWPWTFGQGTKVEIKR | 1.6 | 8.2 |  |  | 0.914 | 1.1
4 | TL1A-0265 (antibody, human IgG1, kappa, V domains shown, human IgG1 effector-function-minimized/kappa) VH: QVQLVQSGAEVKKPGASVKVSCKASGYDYTYYGISWVRQAPGQGLEWMGWISTYNTVTHYAPSLQGRVTMTTDTSTSTAYMELRSLRSDDTAVYYCARESYYGSGAHRGGMDVWGQGTTVTVSS VL: DIQMTQSPSSLSASVGDRVTITCRASQSVSSYLAWYQQKPGKAPKLLIYDASNRATGVPSRFSGSGSGTDFTLTISSLQPEDFATYYCQQRSNWPWTFGQGTKVEIKR | 1.7 | 8.7 | 45.1 | 1.3 | 1.01 | 1.2
5 | TL1A-0278 (antibody, human IgG1, kappa, V domains shown, human IgG1 effector-function-minimized/kappa) VH: QVQLVQSGAEVKKPGASVKVSCKASGYDFSYYGISWVRQAPGQGLEWMGWISTYNTVTHYAPSLQGRVTMTTDTSTSTAYMELRSLRSDDTAVYYCARESYYGSGAFRGGMDVWGQGTTVTVSS VL: DIQMTQSPSSLSASVGDRVTITCRASQSVSSYLAWYQQKPGKAPKLLIYDASNRATGVPSRFSGSGSGTDFTLTISSLQPEDFATYYCQQRSNWPWTFGQGTKVEIKR | 1.8 | 9.1 |  |  | 0.82 | 1
6 | TL1A-0285 (antibody, human IgG1, kappa, V domains shown, human IgG1 effector-function-minimized/kappa) VH: QVQLVQSGAEVKKPGASVKVSCKASGYDFTYYGVSWVRQAPGQGLEWMGWISTYNDNTHYAPSLQGRVTMTTDTSTSTAYMELRSLRSDDTAVYYCARESYYGSGAHRGGMDVWGQGTTVTVSS VL: DIQMTQSPSSLSASVGDRVTITCRASQSVSSYLAWYQQKPGKAPKLLIYDASNRATGVPSRFSGSGSGTDFTLTISSLQPEDFATYYCQQRSNWPWTFGQGTKVEIKR | 1.7 | 8.6 |  |  | 0.955 | 1.2
7 | TL1A-0262 (antibody, human IgG1, kappa, V domains shown, human IgG1 effector-function-minimized/kappa) VH: QVQLVQSGAEVKKPGASVKVSCKASGYDYTYYGISWVRQAPGQGLEWMGWISTYNTGTHYAQKLQGRVTMTTDTSTSTAYMELRSLRSDDTAVYYCARESYYGSGAFRGGMDVWGQGTTVTVSS VL: DIQMTQSPSSLSASVGDRVTITCRASQSVSSYLAWYQQKPGKAPKLLIYDASNRATGVPSRFSGSGSGTDFTLTISSLQPEDFATYYCQQRSNWPWTFGQGTKVEIKR | 1.4 | 7.3 | 43.9 | 1.3 | 1.03 | 1.2
8 | TL1A-0288 (antibody, human IgG1, kappa, V domains shown, human IgG1 effector-function-minimized/kappa; 96 used) VH: QVQLVQSGAEVKKPGASVKVSCKASGYDFTYYGVSWVRQAPGQGLEWMGWISTYNTGTHYAPSLQGRVTMTTDTSTSTAYMELRSLRSDDTAVYYCARESYYGSGAFRGGMDVWGQGTTVTVSS VL: DIQMTQSPSSLSASVGDRVTITCRASQSVSSYLAWYQQKPGKAPKLLIYDASNRATGVPSRFSGSGSGTDFTLTISSLQPEDFATYYCQQRSNWPWTFGQGTKVEIKR | 1.6 | 8 | 96 | 2.8 |  | 
9 | TL1A-0264 (antibody, human IgG1, kappa, V domains shown, human IgG1 effector-function-minimized/kappa) VH: QVQLVQSGAEVKKPGASVKVSCKASGYDYTYYGISWVRQAPGQGLEWMGWISTYNTVTHYAPSLQGRVTMTTDTSTSTAYMELRSLRSDDTAVYYCARESYYGSGAFRGGMDVWGQGTTVTVSS VL: DIQMTQSPSSLSASVGDRVTITCRASQSVSSYLAWYQQKPGKAPKLLIYDASNRATGVPSRFSGSGSGTDFTLTISSLQPEDFATYYCQQRSNWPWTFGQGTKVEIKR | 3.1 | 15.8 | 30 | 0.9 | 1.06 | 1.3
10 | TL1A-0267 (antibody, human IgG1, kappa, V domains shown, human IgG1 effector-function-minimized/kappa) VH: QVQLVQSGAEVKKPGASVKVSCKASGYDYTYYGISWVRQAPGQGLEWMGWISTYNTNTHYAPSLQGRVTMTTDTSTSTAYMELRSLRSDDTAVYYCARESYYGSGAHRGGMDVWGQGTTVTVSS VL: DIQMTQSPSSLSASVGDRVTITCRASQSVSSYLAWYQQKPGKAPKLLIYDASNRATGVPSRFSGSGSGTDFTLTISSLQPEDFATYYCQQRSNWPWTFGQGTKVEIKR | 1.3 | 6.8 | 42.2 | 1.2 | 0.94 | 1.1
11 | TL1A-0274 (antibody, human IgG1, kappa, V domains shown, human IgG1 effector-function-minimized/kappa) VH: QVQLVQSGAEVKKPGASVKVSCKASGYDFSYYGISWVRQAPGQGLEWMGWISTYNTGTHYAPSLQGRVTMTTDTSTSTAYMELRSLRSDDTAVYYCARESYYGSGAFRGGMDVWGQGTTVTVSS VL: DIQMTQSPSSLSASVGDRVTITCRASQSVSSYLAWYQQKPGKAPKLLIYDASNRATGVPSRFSGSGSGTDFTLTISSLQPEDFATYYCQQRSNWPWTFGQGTKVEIKR | 2 | 10.1 | 19.1 | 0.6 |  | 
12 | TL1A-0287 (antibody, human IgG1, kappa, V domains shown, human IgG1 effector-function-minimized/kappa) VH: QVQLVQSGAEVKKPGASVKVSCKASGYDFTYYGVSWVRQAPGQGLEWMGWISTYNDNTHYAQKLQGRVTMTTDTSTSTAYMELRSLRSDDTAVYYCARESYYGSGAHRGGMDVWGQGTTVTVSS VL: DIQMTQSPSSLSASVGDRVTITCRASQSVSSYLAWYQQKPGKAPKLLIYDASNRATGVPSRFSGSGSGTDFTLTISSLQPEDFATYYCQQRSNWPWTFGQGTKVEIKR | 2 | 10.1 |  |  | 0.993 | 1.2
13 | TL1A-0275 (antibody, human IgG1, kappa, V domains shown, human IgG1 effector-function-minimized/kappa) VH: QVQLVQSGAEVKKPGASVKVSCKASGYDFSYYGISWVRQAPGQGLEWMGWISTYNTGTHYAPSLQGRVTMTTDTSTSTAYMELRSLRSDDTAVYYCARESYYGSGAHRGGMDVWGQGTTVTVSS VL: DIQMTQSPSSLSASVGDRVTITCRASQSVSSYLAWYQQKPGKAPKLLIYDASNRATGVPSRFSGSGSGTDFTLTISSLQPEDFATYYCQQRSNWPWTFGQGTKVEIKR | 1.8 | 9 | 24.7 | 0.7 |  | 
